We go through two molecules from PMC9138545 (2022).

By Kd is commonly meant the constant that tells how readily two partners part at equilibrium.

Square brackets hold non-standard residues; d marks the D form. Ends that are not written are not given here. pY = N[C@@H](Cc1ccc(OP(=O)(O)O)cc1)C(=O)O

The target in assay [1] is C-terminal SH2 domain of PI3K regulatory subunit 1 (UniProt P27986 614-724). In words: FP.
Assay [2] addresses N-terminal SH2 domain of PI3K regulatory subunit 1 (UniProt P27986 321-433). In words: FP.

Chain of N-terminal SH2 domain of PI3K regulatory subunit 1 (P27986 321-433): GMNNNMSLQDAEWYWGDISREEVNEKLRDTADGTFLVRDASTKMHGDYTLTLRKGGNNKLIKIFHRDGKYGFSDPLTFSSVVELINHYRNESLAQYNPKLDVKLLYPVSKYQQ
Chain of C-terminal SH2 domain of PI3K regulatory subunit 1 (P27986 614-724): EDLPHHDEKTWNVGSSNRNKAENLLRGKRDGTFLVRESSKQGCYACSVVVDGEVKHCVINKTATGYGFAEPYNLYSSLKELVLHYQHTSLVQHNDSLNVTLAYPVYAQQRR

Regarding GRKGSGD[pY]MPMSPKV-NH2 [phospho-para-Tyr IRS-1 peptide GRKGSGD(pY)MPMSPKV], the Kd was 2.1 nM in assay [1] and 137 nM in assay [2].

B1: fluorescently labelled phospho-para-tyrosine IRS-1 peptide GRKGSGD(pY)MPMSPKS(K-FITC) (peptide)
peptide: GRKGSGDYMPMSPKSK
modifications: not fully specified; phosphotyrosine at position 8 of the peptide (tyrosine residue 632 of human IRS1); lys-carboxyfluorescein (K-FITC) at the C-terminal end
For B1, the figures for the Kd in assay [1] and in assay [2] were 18.6 nM and 408 nM, respectively.
